Source: patent US20220249679A1 (MITSUBISHI TANABE PHARMA, published 2022)

Columns and labels:
[1] = biological target: T1, Cynomolgus monkey CD138 on transfected Expi293 cells (cynomolgus monkey, UniProt P18827 23-310 (human entry)); assay: FACS titration on Expi293 cells transfected with cynomolgus CD138
T1 construct: also called cyno CD138
T1 chain: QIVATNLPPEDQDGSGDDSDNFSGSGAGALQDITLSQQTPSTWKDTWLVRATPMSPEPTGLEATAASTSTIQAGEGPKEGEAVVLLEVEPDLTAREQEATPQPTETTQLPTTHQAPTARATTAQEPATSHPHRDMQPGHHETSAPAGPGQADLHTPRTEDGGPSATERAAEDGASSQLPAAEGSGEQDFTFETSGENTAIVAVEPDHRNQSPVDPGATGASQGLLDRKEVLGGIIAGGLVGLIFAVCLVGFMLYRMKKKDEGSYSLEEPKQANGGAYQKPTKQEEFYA
Source text: Briefly, a vector directing the cell-surface expression of human CD138 or cyno CD138 was transfected in Expi293 cells.

[2] = biological target: T2, Human CD138 His (human, UniProt P18827 23-254); assay: SPR (BioRad Proteon), CD138 His immobilized, bivalent analyte fit
T2 construct: also called hCD138
T2 sequence: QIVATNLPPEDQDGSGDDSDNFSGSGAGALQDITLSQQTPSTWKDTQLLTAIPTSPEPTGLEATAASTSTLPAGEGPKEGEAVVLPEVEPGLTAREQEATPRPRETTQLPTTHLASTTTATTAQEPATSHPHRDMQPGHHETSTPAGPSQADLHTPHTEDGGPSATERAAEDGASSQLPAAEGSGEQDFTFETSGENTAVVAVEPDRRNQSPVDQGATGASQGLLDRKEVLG
Experimental: (§1) Murine IgGs were purified from the hybridoma supernatants and the IgGs were subject to SPR (surface plasmon resonance) for kinetic binding measurements. Human or mouse CD138 His was immobilized on a GLM chip at […] on a BioRad Proteon. […] KDs were measured using bivalent analyte fit.

[3] = biological target: T3, Mouse CD138 His (mouse, UniProt P18828 23-255); assay: SPR (BioRad Proteon), mouse CD138 His immobilized, bivalent analyte fit
T3 construct: also called mCD138
T3 sequence: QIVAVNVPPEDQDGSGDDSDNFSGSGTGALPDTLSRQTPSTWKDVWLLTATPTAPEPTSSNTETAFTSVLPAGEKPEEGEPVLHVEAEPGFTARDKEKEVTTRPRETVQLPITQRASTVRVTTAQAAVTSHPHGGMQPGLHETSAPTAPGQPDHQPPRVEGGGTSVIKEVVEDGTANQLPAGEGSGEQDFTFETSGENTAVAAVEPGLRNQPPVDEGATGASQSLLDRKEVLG
Experimental: as §1

[4] = biological target: T3, Mouse CD138 His; assay: SPR, summary table
Experimental: as §1

[5] = biological target: T2, Human CD138 His; assay: SPR, summary table
Experimental: as §1

[6] = biological target: T4, hCD138 (ELISA of Table 29) (human, UniProt P18827 23-254, limits assumed); assay: hCD138 ELISA
T4 construct: also called human CD138
T4 sequence: T2 sequence

[7] = biological target: T5, Human FGFR3c on transfected CHO cells (human, UniProt P22607 23-375); assay: FACS histogram on CHO cells expressing human FGFR3c (panel title FGFR3c K.I.); concentration not given
T5 sequence: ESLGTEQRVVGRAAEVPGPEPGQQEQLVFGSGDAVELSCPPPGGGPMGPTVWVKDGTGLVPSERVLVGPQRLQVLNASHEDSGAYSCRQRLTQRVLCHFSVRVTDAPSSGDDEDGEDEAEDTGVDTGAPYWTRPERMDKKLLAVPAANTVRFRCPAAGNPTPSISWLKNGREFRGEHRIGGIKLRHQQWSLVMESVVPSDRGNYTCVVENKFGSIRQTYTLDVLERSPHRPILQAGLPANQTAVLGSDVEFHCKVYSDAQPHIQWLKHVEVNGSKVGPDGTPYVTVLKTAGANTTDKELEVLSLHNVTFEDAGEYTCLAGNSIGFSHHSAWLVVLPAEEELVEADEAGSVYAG
Source text: (§2) CHO cells (Chinese Hamster Ovary cells) were transfected to express the human FGFR3c (FIG. 16A) or human FGFR3b (FIG. 16B) on the cell surface.

[8] = biological target: T6, Human FGFR3b on transfected CHO cells (human); assay: FACS histogram on CHO cells expressing human FGFR3b (panel title FGFR3b K.I.); concentration not given
T6 chain: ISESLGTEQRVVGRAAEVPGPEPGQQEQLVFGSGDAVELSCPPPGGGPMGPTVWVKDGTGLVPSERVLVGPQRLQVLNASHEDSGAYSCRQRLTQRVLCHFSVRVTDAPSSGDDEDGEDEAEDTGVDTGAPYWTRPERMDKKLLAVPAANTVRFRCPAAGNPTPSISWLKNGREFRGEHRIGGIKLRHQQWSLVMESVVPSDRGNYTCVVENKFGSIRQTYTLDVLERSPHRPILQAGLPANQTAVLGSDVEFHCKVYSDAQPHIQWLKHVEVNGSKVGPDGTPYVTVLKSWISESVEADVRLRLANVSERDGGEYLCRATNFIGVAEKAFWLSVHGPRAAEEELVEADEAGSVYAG
Source text: as §2

[9] = biological target: T7, Human syndecan-1 (CD138) on the cell surface (human, UniProt P18827 23-310); assay: FACS on KMS-11 cells (previous experiments); KMS-11 multiple myeloma cells, previous experiments
T7 construct: Endogenous on H929, KMS-11 and RT112/84 cells or transfected into Expi293 cells; also called human CD138; hCD138
T7 sequence: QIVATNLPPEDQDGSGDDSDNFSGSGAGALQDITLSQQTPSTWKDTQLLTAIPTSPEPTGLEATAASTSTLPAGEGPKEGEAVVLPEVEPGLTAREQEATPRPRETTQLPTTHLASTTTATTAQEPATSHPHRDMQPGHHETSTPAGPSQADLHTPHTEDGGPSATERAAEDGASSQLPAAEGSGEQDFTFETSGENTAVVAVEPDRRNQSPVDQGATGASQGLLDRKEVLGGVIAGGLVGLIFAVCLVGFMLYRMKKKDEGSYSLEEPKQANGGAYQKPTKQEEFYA

[10] = biological target: T8, hCD138 peptide AGEGPKEGEAVVLP (human); assay: ELISA, plate-coated hCD138 peptide
T8 construct: Portion of the linear CD138 peptide used for immunization; also the peptide in the crystal structure; also called syndecan-1 peptide
T8 peptide: AGEGPKEGEAVVLP
Experimental: (§3) A CD138 binding ELISA was performed with 9 representative humanized antibodies to determine binding to portion of the linear CD138 peptide used for immunization (FIG. 7). […] Coated plates were incubated with various dilutions of each of the 9 representative antibodies overnight and binding was detected with a goat anti-human IgG (H+L)-HRP. EC50s were determined using four parameter fit curves (Table 21). An ELISA was also performed to detect binding to plate-coated human CD138-Fc protein (Table 21).

[11] = biological target: T7, Human syndecan-1 (CD138) on the cell …; assay: FACS on RT112/84 cells (previous experiments); RT112/84 bladder cancer cells (printed RT-122/84), previous experiments
[12] = biological target: T9, Human CD138-Fc protein (human, UniProt P18827 23-254); assay: ELISA, plate-coated human CD138-Fc
T9 construct: also called hCD138-Fc
T9 sequence: T2 sequence
Experimental: as §3

[13] = biological target: T3, Mouse CD138 His; assay: SPR, mouse CD138 His immobilized
Experimental: as §1

[14] = biological target: T10, Negative control peptide QAAVTSHPHGGMQPGLHETSA (mouse); assay: told in the method of the peptide ELISA
T10 construct: also called mouse CD138 peptide
T10 peptide: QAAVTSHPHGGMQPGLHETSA
Experimental: as §3

B1: 13P30A7 hIgG1 (antibody, V domains shown)
VH: EVQLVESGGGLVQPKGSLKLSCAASGFTFNTYAMNWVRQAPGKGLEWIARIRSKSNNYATYYADSVKDRFTISRDDSQSLLYLQMNNLKTEDTAIFYCVTDYGYVYFDAWGAGTTVTVSS
VL: NIIMTQSPKSMAMSVGERVTLSCKASENVGNYVSWYQQKPEQSPKLLIYGASYRYTGVPDRFTGSGSGTDFTLTISSVQAEDLADYHCGQSSRYPLTFGAGTKLELKR
notes: Chimeric antibody: murine variable regions of F13P30A7 with constant regions of human IgG1, kappa isotype; also called chP30A7; chP30a7
- binding result [1]: binds

B2: F12P18D4.a (antibody, V domains shown)
VH: EVQLQQSGPELVKPGASVKMSCKASGYTFADYYMKWVKQSHGKSLEWIGDINPNSGDTFYNHKFKGKATLTVDKSSSTAYMQLNSLTSEDSAVYYCARTYYDYWGQGTTLTVSS
VL: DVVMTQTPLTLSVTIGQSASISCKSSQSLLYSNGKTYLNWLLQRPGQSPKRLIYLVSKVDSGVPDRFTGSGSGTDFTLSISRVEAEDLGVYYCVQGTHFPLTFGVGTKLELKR
notes: Murine IgG purified from hybridoma supernatant
- Kd [2]: 28.6 nM
- koff [2]: 0.018 s⁻¹
- kon [2]: 631000 M⁻¹ s⁻¹
- Kd [3]: 672 nM
- Kd [4]: 672 nM
- Kd [5]: 29 nM

B3: hF6-HN-G7 (bispecific antibody, human IgG1, kappa)
heavy: not shown
light: DVVMTQTPLSLSVTPGQPASISCKSSQSLLASDGKTYLNWLLQRPGQSPKRLIYLVSKLDSGVPNRFSGSGSGTDFTLQISRVEAEDVGLYYCWQGAHFPFTFGSGTKLEIKRTVAAPSVFIFPPSDEQLKSGTASVVCLLNNFYPREAKVQWKVDNALQSGNSQESVTEQDSKDSTYSLSSTLTLSKADYEKHKVYACEVTHQGLSSPVTKSFNRGEC
notes: G7 Fynomer fused through the linker to the N-terminus of the hF6 heavy chain; IgG1/kappa
- EC50 [6]: 0.69 nM
- binding result [7]: binds
- binding result [8]: binds

B4: 12P16F6 hIgG1 (antibody, V domains shown)
VH: QVQLQQSGAEVVKPGASVKLSCKASGYTFTSYYLYWVKKGPGQGLDWIGEIYPRSGGTNINEKFLSKATLTADESSSTAYLQLSSLTSEDSAVYYCTRSLLYWGQGTTLIVSS
VL: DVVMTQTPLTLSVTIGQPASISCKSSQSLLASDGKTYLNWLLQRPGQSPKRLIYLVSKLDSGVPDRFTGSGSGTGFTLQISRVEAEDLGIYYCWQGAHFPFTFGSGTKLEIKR
notes: Chimeric antibody: murine variable regions of F12P16F6 with constant regions of human IgG1, kappa isotype; also called chF6; chP16F6
- EC50 [9]: ~3 nM
- EC50 [10]: 0.599 nM
- binding result [1]: binds
- EC50 [11]: ~9 nM
- EC50 [12]: 0.471 nM

B5: F12P16F6 (antibody, V domains shown)
VH: B4 VH
VL: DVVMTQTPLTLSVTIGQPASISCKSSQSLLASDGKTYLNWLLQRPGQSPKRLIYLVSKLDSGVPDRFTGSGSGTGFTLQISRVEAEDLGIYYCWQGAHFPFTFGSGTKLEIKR
notes: Murine hybridoma antibody (IgG); tested as hybridoma supernatant in FACS and as purified murine IgG in SPR
- binding result [13]: no binding (tested: 167 nM)
- Kd [2]: 21 nM
- koff [2]: 0.00117 s⁻¹
- kon [2]: 55700 M⁻¹ s⁻¹
- binding result [14]: no binding
- Kd [5]: 21 nM
